According to patent US20160333110A1 (CHIOME BIOSCIENCE, published 2016):

Biological target: T1, recombinant hTACSTD2-Fc-His protein (Creative BioMart) (human, UniProt P09758 27-274, limits assumed)
T1 construct: bought protein; also called hTROP-2 (low-density antigen-coated ELISA); not shown: Fc part of the bought fusion protein; not described; His tag
T1 sequence: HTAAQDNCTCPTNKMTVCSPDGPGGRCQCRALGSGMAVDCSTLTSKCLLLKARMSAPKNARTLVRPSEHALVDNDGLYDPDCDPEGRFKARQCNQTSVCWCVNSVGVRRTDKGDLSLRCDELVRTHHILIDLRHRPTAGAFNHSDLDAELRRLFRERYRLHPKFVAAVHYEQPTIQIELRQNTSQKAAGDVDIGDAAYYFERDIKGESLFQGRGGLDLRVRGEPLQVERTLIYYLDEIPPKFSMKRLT
Assay: low-density antigen-coated ELISA, plate coated with 0.1 µg/mL hTACSTD2-Fc-His, purified antibodies; HuK5-70-2 (R44G mutant); low-density ELISA, 0.1 µg/mL hTROP-2 coat

B1: HuK5-70-2 antibody (HuK5-70 R44G mutant antibody) (antibody, V domains shown)
VH: QVQLVQSGAEVKKPGASVKVSCKASGYTFTIYWINWVRQAPGQGLEWIGNIYPSDSYTNYNQKFKDKATLTVDTSASTAYMELSSLRSEDTAVYYCTRTSMADYWGQGTLVTVSS
VL: EIVLTQSPATLSLSPGERATLSCRASQSIGTSIHWYQQKPGQAPRLLIKYASESISGIPARFSGSGSGTDFTLTISSLEPEDFAVYYCQQSNSWPFTFGQGTKVEIK
notes: also called HuK5-70 VH R44G; HuK5-70 VH2
In the case of B1, the EC50 is reported as 0.0114 µg/mL.
